# Positions count from the first letter of the chain named.
# B1: His-hArc/Arg3.1 (recombinant human activity-regulated cytoskeleton-associated protein), wild type (natural protein, UniProt Q7LC44 2-396, looked up)
# chain: ELDHRTSGGLHAYPGPRGGQVAKPNVILQIGKCRAEMLEHVRRTHRHLLAEVSKQVERELKGLHRSVGKLESNLDGYVPTSDSQRWKKSIKACLCRCQETIANLERWVKREMHVWREVFYRLERWADRLESTGGKYPVGSESARHTVSVGVGGPESYCHEADGYDYTVSPYAITPPPAAGELPGQEPAEAQQYQPWVPGEDGQPSPGVDTQIFEDPREFLSHLEEYLRQVGGSEEYWLSQIQNHMNGPAKKWWEFKQGSVKNWVEFKKEFLQYSEGTLSREAIQRELDLPQKQGEPLDQFLWRKRDLYQTLYVDADEEEIIQYVVGTLQPKLKRFLRHPLPKTLEQLIQRGMEVQDDLEQAAEPAGPHLPVEDEAETLTPAPNSESVASDRTQPE
# B2: His-hArc/Arg3.1 C94/98A (natural protein, human, UniProt Q7LC44 2-396, looked up)
# chain: B1 chain with C93A, C97A
# Biological target: the molecule itself
# Assay: cross-linking
row,Protein,binding result
1,B1,binds
2,B2,binds
